No end group written: not given here.
Target: mucin molecule associated with epithelial tumours (Homo sapiens (Human), UniProt P15941)
Test: synthetic CDR peptides of NM-2 VH; method not told at this place

binding result: binds
Binder: REPPTRTFAYWG (also: I125 label, position not given here) [peptide REPPTRTFAYWG]

Source: patent US5833943, “Minimum recognition unit of a pem mucin tandem repeat specific monoclonal antibody” (Cancer Therapeutics Limited, dated 1998)
